Key:
[1] = ELISA stability characterization of tPA after storage in vial, solution or RRP; format: physicochemical
Procedure: RRPs were initially kept at 20° C., and subsequently subjected to a fixed wall temperature of 65° C. for 3 hours. Samples were kept in 6 different storage conditions for 24 hours prior to assay preparation: (1) Standard Cathflo Activase lyophilized in glass vial at 20° C.; (2) Cathflo Activase reconstituted in Millipore filtered water and kept in glass vial at 20° C.; (3) lyophilized Cathflo Activase loaded into RRPs and kept at 20° C.; (4) Cathflo Activase lyophilized in glass vial at 65° C.; (5) Cathflo Activase reconstituted in Millipore filtered water and stored in glass vial at 65° C., and (6) Cathflo Activase loaded into RRP and kept at 65° C. After 24 hours each sample in lyophilized form, including those stored in the RRP, was reconstituted in 2 mL Millipore water, and apportioned for subsequent use in ELISA, UV-Vis and HPLC assays.
Stability experiments were performed to characterize and compare the RRP with standard vials at various storage conditions. ELISA assays were used to test for stability of samples (Human tPA Platinum ELISA Kit, eBioscience, Inc.) that underwent two temperature conditions, T=20, 65° C. HPLC assays were not sufficient in assaying stability for tPA as the low pH buffer required denatured tPA regardless of conformation or partial denaturation already induced by the storage condition.
The samples to be tested were injected into each ELISA well and left to incubate. After a wash step, a second antibody, horseradish peroxidase (HRP)-conjugated anti-tPA, was injected into each sample well. The HRP-conjugated anti-tPA bound onto the opposing side of the tPA molecule already bound onto the plate-fixed antibody. After a second wash step, a color inducing substrate (TMB substrate) was then injected into the wells, which bound onto the HRP to induce a measureable gradient representing the amount of tPA bound. In order to prevent oversaturation of the antibodies, the samples were diluted to 10 ng/mL to fall within the assay sensitivity range of 2 pg/mL-10 ng/mL. Optical signal intensity from assay plates were measured with spectrophotometer at wavelength 450 nm (PowerWave HT Microplate Spectrophotomer, BioTek Instruments, Inc.). Each sample was normalized against a calibration curve derived from a 5-parameter logistic fit of tPA standards ran concurrently with the samples.

[2] = cited from earlier work

Tissue Plasminogen Activator [tPA]
stability by ELISA ([1]; all samples (solid, liquid, and RRP) at 20° C., over 24 hours): stability preservation | average activity retained (ELISA) ([1]; lyophilized in standard glass vial at 65° C., 24 hours): 81.6% | total initial drug stability retained, average (ELISA) ([1]; lyophilized, loaded into RRP, kept at 65° C., 24 hours): 86.3% | activity expressed, in average of the standard activity average (ELISA) ([1]; stored in reconstituted form within glass vials at 65° C., 24 hours): 39.3% | stability time in solution (liquid form) [2]: up to 8 hours

Reference: patent US20150297458A1, “RAPID RECONSTITUTION PACKAGES FOR MIXING AND DELIVERY OF DRUGS” (Massachusetts Institute of Technology, priority 2012, published 2015)
